Results on seven molecules are retold here after paper PMC7306444.

As a reminder, the Kd is the equilibrium constant for the complex coming apart. A higher Kd goes with weaker binding.

Targets include GST-hFMRP RGG (Homo sapiens, UniProt Q06787 531-632); NT-hFMRP (Homo sapiens, UniProt Q06787 218-632); NT-hFMRP ΔKH1 (Homo sapiens, UniProt Q06787 281-632); GST-hFMRP KH0 (Homo sapiens, UniProt Q06787 126-201); GST-hFMRP KH1-KH2 (Homo sapiens, UniProt Q06787 216-425); GST-hFMRP KH1 (Homo sapiens, UniProt Q06787 216-280); GST-hFMRP KH0-KH1-KH2 (Homo sapiens, UniProt Q06787 126-425); GST-hFMRP KH2 (Homo sapiens, UniProt Q06787 281-425).

Assay in all cases: fluorescence anisotropy

UGGGGU (structured_RNA) [UG4U]: the Kd in the series with GST-hFMRP RGG amounted to 210 ± 18 nM; with NT-hFMRP, 110 ± 16 nM; with NT-hFMRP ΔKH1 it was 80 ± 7 nM.
Consider UGACGGACGGACGGACGU (structured_RNA) [(GACG)4], for which the binding result with GST-hFMRP KH0, with GST-hFMRP KH1-KH2, with GST-hFMRP KH1, with GST-hFMRP KH0-KH1-KH2, with GST-hFMRP KH2 and with GST-hFMRP RGG was “no binding” in each case. In the series with NT-hFMRP, the binding result was “no binding”.
As for CCCCCCCACUUCCCCCCU (ssRNA) [ACUU], in the series with NT-hFMRP, the binding result was “no binding”.
Take UGGACUUGGACUUGGACU (ssRNA, m6A at position 10) [UGGm6ACU]: in the series with NT-hFMRP, the Kd was determined as 1250 ± 610 nM.
UUGGAUGGAUGGAUGGAU (structured_RNA) [(UGGA)4]: the binding result in the series with GST-hFMRP KH0, in the series with GST-hFMRP KH1-KH2, with GST-hFMRP KH1, in the series with GST-hFMRP KH0-KH1-KH2 and with GST-hFMRP KH2 was “no binding” throughout. The dissociation constant (Kd) was determined as 710 ± 50 nM with NT-hFMRP and 840 ± 39 nM in the series with NT-hFMRP ΔKH1.
As for GGGGGGGGGGGGGGGGGU (structured_RNA) [PolyG17], the Kd with GST-hFMRP RGG stood at 8.6 ± 1.2 nM; in the series with NT-hFMRP it was 14 ± 2 nM; in the series with NT-hFMRP ΔKH1, 17 ± 3 nM.
CCCCCCCUGGACCCCCCU (ssRNA) [UGGA]: in the series with NT-hFMRP, the binding result was “no binding”.
